Molecular target: Spt6-YW with a C-terminal 3XFLAG epitope tag (S. cerevisiae) (UniProt P23615)
Test: co-IP

Chain of UniProt P23615 (P23615 whole entry): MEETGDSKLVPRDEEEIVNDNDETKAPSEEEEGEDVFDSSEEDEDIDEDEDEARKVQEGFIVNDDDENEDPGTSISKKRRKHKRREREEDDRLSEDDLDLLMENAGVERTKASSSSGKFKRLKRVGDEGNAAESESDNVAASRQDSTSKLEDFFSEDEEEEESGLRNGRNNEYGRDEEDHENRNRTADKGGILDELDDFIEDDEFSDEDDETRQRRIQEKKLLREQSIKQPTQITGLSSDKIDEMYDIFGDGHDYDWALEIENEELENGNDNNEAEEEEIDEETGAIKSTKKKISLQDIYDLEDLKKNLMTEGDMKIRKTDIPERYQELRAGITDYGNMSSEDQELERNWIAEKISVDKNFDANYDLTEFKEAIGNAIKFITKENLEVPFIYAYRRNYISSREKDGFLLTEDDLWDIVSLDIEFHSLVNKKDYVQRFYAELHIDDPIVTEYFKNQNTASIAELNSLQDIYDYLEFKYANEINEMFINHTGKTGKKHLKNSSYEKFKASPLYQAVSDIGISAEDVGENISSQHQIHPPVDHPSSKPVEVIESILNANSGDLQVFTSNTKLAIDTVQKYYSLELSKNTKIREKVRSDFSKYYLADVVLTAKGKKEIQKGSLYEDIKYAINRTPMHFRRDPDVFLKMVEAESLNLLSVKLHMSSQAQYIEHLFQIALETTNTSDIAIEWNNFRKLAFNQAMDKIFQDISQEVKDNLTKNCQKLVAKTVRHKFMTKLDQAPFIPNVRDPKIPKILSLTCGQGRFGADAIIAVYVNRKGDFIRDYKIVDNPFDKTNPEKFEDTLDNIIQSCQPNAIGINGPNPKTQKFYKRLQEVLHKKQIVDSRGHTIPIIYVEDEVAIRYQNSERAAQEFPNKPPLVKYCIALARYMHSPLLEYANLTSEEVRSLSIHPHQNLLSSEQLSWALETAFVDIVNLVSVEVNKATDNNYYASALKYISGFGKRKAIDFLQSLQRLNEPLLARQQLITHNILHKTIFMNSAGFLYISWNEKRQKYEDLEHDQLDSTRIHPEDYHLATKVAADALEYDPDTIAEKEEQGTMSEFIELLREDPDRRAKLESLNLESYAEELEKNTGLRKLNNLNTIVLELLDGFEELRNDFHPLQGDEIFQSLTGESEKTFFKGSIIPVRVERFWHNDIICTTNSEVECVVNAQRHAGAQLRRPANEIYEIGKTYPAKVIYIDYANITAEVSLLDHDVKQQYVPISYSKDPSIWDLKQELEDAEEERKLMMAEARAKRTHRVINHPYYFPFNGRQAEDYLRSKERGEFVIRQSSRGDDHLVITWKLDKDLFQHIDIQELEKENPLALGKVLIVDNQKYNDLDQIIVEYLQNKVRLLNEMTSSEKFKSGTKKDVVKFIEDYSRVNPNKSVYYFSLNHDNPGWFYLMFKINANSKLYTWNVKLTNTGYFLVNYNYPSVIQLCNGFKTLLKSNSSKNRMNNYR

B1: Mcm4-V5 (natural protein)
chain: MSQQSSSPTKEDNNSSSPVVPNPDSVPPQLSSPALFYSSSSSQGDIYGRNNSQNLSQGEGNIRAAIGSSPLNFPSSSQRQNSDVFQSQGRQGRIRSSASASGRSRYHSDLRSDRALPTSSSSLGRNGQNRVHMRRNDIHTSDLSSPRRIVDFDTRSGVNTLDTSSSSAPPSEASEPLRIIWGTNVSIQECTTNFRNFLMSFKYKFRKILDEREEFINNTTDEELYYIKQLNEMRELGTSNLNLDARNLLAYKQTEDLYHQLLNYPQEVISIMDQTIKDCMVSLIVDNNLDYDLDEIETKFYKVRPYNVGSCKGMRELNPNDIDKLINLKGLVLRSTPVIPDMKVAFFKCNVCDHTMAVEIDRGVIQEPARCERIDCNEPNSMSLIHNRCSFADKQVIKLQETPDFVPDGQTPHSISLCVYDELVDSCRAGDRIEVTGTFRSIPIRANSRQRVLKSLYKTYVDVVHVKKVSDKRLDVDTSTIEQELMQNKVDHNEVEEVRQITDQDLAKIREVAAREDLYSLLARSIAPSIYELEDVKKGILLQLFGGTNKTFTKGGRYRGDINILLCGDPSTSKSQILQYVHKITPRGVYTSGKGSSAVGLTAYITRDVDTKQLVLESGALVLSDGGVCCIDEFDKMSDSTRSVLHEVMEQQTISIAKAGIITTLNARSSILASANPIGSRYNPNLPVTENIDLPPPLLSRFDLVYLVLDKVDEKNDRELAKHLTNLYLEDKPEHISQDDVLPVEFLTMYISYAKEHIHPIITEAAKTELVRAYVGMRKMGDDSRSDEKRITATTRQLESMIRLAEAHAKMKLKNVVELEDVQEAVRLIRSAIKDYATDPKTGKIDMNLVQTGKSVIQRKLQEDLSREIMNVLKDQASDSMSFNELIKQINEHSQDRVESSDIQEALSRLQQEDKVIVLGEGVRRSVRLNNRV
  fold reduction of co-immunoprecipitation against wild-type Spt6: 2 fold
